Results from PMC7710607.

Target: ACSL1 (UniProt P41216)
Experiment: co-IP of tagged proteins, blot
Settings: reference: wild type TBK1; sites S172

Substance: TBK1 (flag-human TBK1) (from UniProt Q9UHD2) S172A
- binding against the reference: stronger
